Article PMC9022012 (Journal of immunology (Baltimore, Md. : 1950), 2020)
No end group written: not given here.

Tests used:
[1] = molecular target: HLA-DRB4 (DRB4*01:01) (Homo sapiens, UniProt P01903+P13762, G164S); experiment: Competitive ELISA HLA class II peptide-binding assay, DRB4*01:01
[2] = molecular target: HLA-DQ8 (DQA1*03:01/DQB1*03:02) (Homo sapiens, UniProt P01909+P01920, A209T/A45G/C70Q/D89A/DUP78-78/E183D/E77G/F237L/G63E/H199R/I129T/K197E/L178F/L74F/L98V/Q57E/Q76R/S185I/S97I/T217I/T49S/V73L/Y58L); experiment: Competitive ELISA HLA class II peptide-binding assay, DQ8
[3] = molecular target: HLA-DQ2 (DQA1*05:01/DQB1*02:01) (Homo sapiens, UniProt P01909+P01920, A45G/A70V/D89A/E106A/E77G/E98D/H199R/L107V/N214S/P84L/P87L/T103K/T109R/T172A/T60S/V78E/V99I/Y58L/Y62S/Y69I/Y79F); experiment: Competitive ELISA HLA class II peptide-binding assay, DQ2
[4] = molecular target: HLA-DR3 (DRB1*03:01) (Homo sapiens, UniProt P01903+P01911, A100K/A102G/A103R/A169T/F55Y/I96L/K41T/L162R/M171V/P40S/Q125H/Q178H/Q39Y/R42S/S66N/T106N/T262R/W38E/Y61H); experiment: Competitive ELISA HLA class II peptide-binding assay, DRB1*03:01
[5] = molecular target: HLA-DR4 (DRB1*04:01) (Homo sapiens, UniProt P01903+P01911, A100K/A169T/F76Y/I96L/K127E/L162R/M171V/N62H/P40V/Q125Y/R42H/S133A/S149N/S66Y/V115G/V209L/W38E); experiment: Competitive ELISA HLA class II peptide-binding assay, DRB1*04:01
[6] = molecular target: T1, proinsulin (C-peptide) peptide on HLA-DRA*01:01 / HLA-DRB1*04:04 (human); experiment: proliferation
T1 peptide: PLALEGSLQ

[7] = molecular target: T2, proinsulin (C-peptide) peptide on HLA-DRA*01:01 / HLA-DRB1*04:04 (human); experiment: proliferation
T2 peptide: PLALEGSLQK

[8] = molecular target: T3, proinsulin (C-peptide) peptide on HLA-DQA1*05:01 / HLA-DQB1*02:01 (human); experiment: proliferation
T3 peptide: SLQPLALEGSLQ

[9] = molecular target: T4, proinsulin (C-peptide) peptide on HLA-DQA1*03:01 / HLA-DQB1*03:02 (human); experiment: proliferation
T4 peptide: GGPGAGSLQPL

[10] = molecular target: T5, proinsulin (B-chain) peptide on HLA-DQA1*05:01 / HLA-DQB1*02:01 (human); experiment: proliferation
T5 peptide: ALYLVCGERG

[11] = molecular target: T6, proinsulin (C-peptide) peptide on HLA-DRA*01:01 / HLA-DRB1*03:01 (human); experiment: proliferation
T6 peptide: QPLALEGSLQKR

[12] = molecular target: T7, proinsulin (B-chain) peptide on HLA-DQA1*05:01 / HLA-DQB1*02:01 (human); experiment: proliferation
T7 peptide: VCGERGFFY

[13] = molecular target: T8, proinsulin (C-peptide) peptide on HLA-DRA*01:01 / HLA-DRB1*04:01 (human); experiment: proliferation
T8 peptide: SLQPLALEGSL

`CC[C@H](C)[C@H](NC(=O)[C@@H](NC(=O)[C@H](C)NC(=O)[C@H](CCCCN)NC(=O)[C@H](CC(=O)O)NC(=O)[C@@H](NC(=O)[C@H](CCC(=O)O)NC(=O)[C@@H](NC(=O)[C@H](C)NC(=O)[C@H](CC(C)C)NC(=O)[C@H](CC(C)C)NC(=O)[C@H](CC(=O)O)NC(=O)CNC(=O)[C@H](C)N)[C@@H](C)CC)[C@@H](C)O)[C@@H](C)O)C(=O)O` [E2/E7] was tested, and the IC50 [1] was 63 nM.

“ADVEVYRAVTPLGPPD [DQB45-57, reference compound]” gave an IC50 [2] of 730 nM.

With “B11-25: overlapping proinsulin peptide (15-mer) (LVEALYLVCGERGFF; UniProt P01308 35-49, looked up, fragment) [Peptide B11-25]” the “binding affinity to DQ8, in words” value [2] was “moderate to high” and the “binding affinity to DQ2, in words” value [3] was “moderate (binding ratio below 100 (moderate binding))”.

For “B14-28: overlapping proinsulin peptide (15-mer) (ALYLVCGERGFFYTP; UniProt P01308 38-52, looked up, fragment) [Peptide B14-28]”, the “binding affinity to DQ8, in words” value [2] was “moderate to high” and the “binding affinity to DQ2, in words” value [3] was “did not show detectable binding affinity”.

With “B17-C1: overlapping proinsulin peptide (15-mer) (LVCGERGFFYTPKTR; UniProt P01308 41-55, looked up, fragment) [Peptide B17-C1]” the “binding affinity to DQ2, in words” value [3] was “did not show detectable binding affinity”.

With “B20-C4: overlapping proinsulin peptide (15-mer) (GERGFFYTPKTRREA; UniProt P01308 44-58, looked up, fragment) [Peptide B20-C4]” the “binding affinity to DRB1*03:01, in words” value [4] was “high (below 10 (high binding))”.

For “C13-27: overlapping proinsulin peptide (15-mer) (ELGGGPGAGSLQPLA; UniProt P01308 67-81, looked up, fragment) [Peptide C13-27]”, the “binding affinity to DQ8, in words” value [2] was “did not show detectable binding affinity”.

With “C16-30: overlapping proinsulin peptide (15-mer) (GGPGAGSLQPLALEG; UniProt P01308 70-84, looked up, fragment) [Peptide C16-30]” the “binding affinity to DQ8, in words” value [2] was “did not show detectable binding affinity”.

“C19-33: overlapping proinsulin peptide (15-mer) (GAGSLQPLALEGSLQ; UniProt P01308 73-87, looked up, fragment) [Peptide C19-33]” was tested, and the “binding affinity to DQ8, in words” value [2] was “moderate to high”, the “binding affinity to DQ2, in words” value [3] was “moderate (binding ratio below 100 (moderate binding))” and the “binding affinity to DRB1*04:01, in words” value [5] was “abrogated”. For the same molecule, the “binding affinity to DRB1*03:01, in words” value [4] was “abrogated”.

GIVEQCCTSICSLYQ [Peptide A1-15] was tested, and the “binding affinity to DQ8, in words” value [2] was “moderate to high” and the “binding affinity to DQ2, in words” value [3] was “moderate to high”.

B1: Clone 2 (TCR)
alpha TRAV13-1 TRAJ17 CDR3: CAASSKAAGNKLTF
beta TRBV6-1 TRBJ1-2 CDR3: CASSMTQGLDYGYTF
B1: recognises [6].

B2: Clone 3 (TCR)
alpha TRAV19 TRAJ49 CDR3: CALSDRTGNQFYF
beta TRBV9 TRBJ1-2 CDR3: CASRLSGTNIPPTYGYTF
B2: recognises [7].

B3: Clone 22 (TCR)
alpha TRAV2 TRAJ8 CDR3: CAVEDHGTGFQKLVF
beta TRBV4-3 TRBJ2-3 CDR3: CASSQETGPTQYF
B3: recognises [8].

B4: Clone 23 (TCR)
alpha TRAV12-3 TRAJ33 CDR3: CAMSARSNYQLIW
beta TRBV4-3 TRBJ2-3 CDR3: CASSKMGPRTDTQYF
B4: recognises [9].

B5: Clone 24 (TCR)
alpha TRAV8-2 TRAJ20 CDR3: CAVSEAYKLSF
beta TRBV5-8 TRBJ2-5 CDR3: CASTEGIQETQYF
B5: recognises [10].

B6: Clone 11 (TCR)
alpha TRAV13-1 TRAJ47 CDR3: CAAMCKLVF
beta TRBV18 TRBJ1-2 CDR3: CASSPDRQGVEYTF
B6: recognises [11].

B7: Clone 1 (TCR)
alpha TRAV41 TRAJ49 CDR3: CAASNTGNQFYF
beta TRBV14 TRBJ2-7 CDR3: CASSQALAGVAEQYF
B7: recognises [7].

B8: Clone 19 (TCR)
alpha TRAV29 TRAJ33 CDR3: CAASPSDSNYQLIW
beta TRBV7-2 TRBJ1-1 CDR3: CASSFRRGSMNTEAFF
B8: recognises [12].

B9: Clone 13 (TCR)
alpha TRAV17 TRAJ11 CDR3: CATALISGYSTLTF
beta TRBV12-3 TRBJ2-1 CDR3: CASRQQGVGYNEQFF
B9: recognises [13].
